Assay results: the supplement of paper PMC10065799, “High-throughput profiling of sequence recognition by tyrosine kinases and SH2 domains using bacterial peptide display” (eLife, 2023)
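Note: 11-residue human phosphosite peptides and single-mutation variants displayed on the E. coli surface, counted by deep sequencing, each peptide's frequency after selection divided by its frequency in the unselected input library; frequency after pTyr selection over input frequency; kinase dosed for 20-30% of maximal phosphorylation in three min.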

What follows are sequences tested against Jak2 (UniProt O60674) (assay: phosphorylation enrichment, bacterial display (enrichment ratio); higher = better substrate or ligand; peptides without Tyr show the background).
Chain of Jak2 (O60674 whole entry, looked up): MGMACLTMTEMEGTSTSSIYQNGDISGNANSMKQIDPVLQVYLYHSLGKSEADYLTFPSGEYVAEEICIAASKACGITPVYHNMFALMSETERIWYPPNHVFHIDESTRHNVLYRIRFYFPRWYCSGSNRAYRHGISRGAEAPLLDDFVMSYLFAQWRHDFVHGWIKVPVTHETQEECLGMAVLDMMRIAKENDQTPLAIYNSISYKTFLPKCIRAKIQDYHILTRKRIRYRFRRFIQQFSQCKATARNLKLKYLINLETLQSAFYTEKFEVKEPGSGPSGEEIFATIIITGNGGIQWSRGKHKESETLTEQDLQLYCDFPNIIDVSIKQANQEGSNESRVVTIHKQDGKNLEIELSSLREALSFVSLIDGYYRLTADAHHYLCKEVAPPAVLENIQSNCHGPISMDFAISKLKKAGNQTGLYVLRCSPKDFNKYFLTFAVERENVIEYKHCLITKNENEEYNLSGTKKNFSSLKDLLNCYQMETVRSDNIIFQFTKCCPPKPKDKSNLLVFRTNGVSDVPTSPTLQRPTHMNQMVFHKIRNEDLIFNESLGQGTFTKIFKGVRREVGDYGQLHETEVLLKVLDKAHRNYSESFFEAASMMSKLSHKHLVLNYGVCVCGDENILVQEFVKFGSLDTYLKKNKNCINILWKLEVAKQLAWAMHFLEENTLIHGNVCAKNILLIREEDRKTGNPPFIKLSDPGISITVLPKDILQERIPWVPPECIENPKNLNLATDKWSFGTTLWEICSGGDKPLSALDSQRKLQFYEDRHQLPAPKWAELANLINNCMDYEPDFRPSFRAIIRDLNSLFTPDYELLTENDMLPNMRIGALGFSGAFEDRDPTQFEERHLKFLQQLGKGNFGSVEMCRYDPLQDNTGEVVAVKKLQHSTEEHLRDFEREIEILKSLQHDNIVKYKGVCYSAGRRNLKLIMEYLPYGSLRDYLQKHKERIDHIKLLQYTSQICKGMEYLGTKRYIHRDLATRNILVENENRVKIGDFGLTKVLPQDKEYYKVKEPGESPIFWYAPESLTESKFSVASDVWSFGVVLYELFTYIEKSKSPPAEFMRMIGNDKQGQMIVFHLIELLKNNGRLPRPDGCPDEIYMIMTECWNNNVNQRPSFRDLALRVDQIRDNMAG
QEEPEYWDQET [HLA-A_Y83_G80E] showed a phosphorylation enrichment of 2. With KILGRYYETSS [PAX2_Y72_G76S] the phosphorylation enrichment was 0.595. Sequence HQIQSYTCEID [DES_Y331] has a phosphorylation enrichment of 1.44. For PLDGEYFTRQI [TP53_Y327_L330R], the phosphorylation enrichment was 0.637. For LQLLGYRPVYS [CHST6_Y358], the phosphorylation enrichment was 0.979. AAVDEYLEFRR [FAM221A_Y17_YF] showed a phosphorylation enrichment of 0.756. LTRDIYKNDFF [ROS1_Y2110_A2106T_YF] showed a phosphorylation enrichment of 0.79. For DDDPEDRKFLE [UPF3B_Y160_Y160D], the phosphorylation enrichment was 1.17. Work on GRLVEYDIDEV [SMS_Y134] yielded a phosphorylation enrichment of 1.45. Sequence NPSFNYEIVNQ [DYNC1H1_Y3379_R3384Q_YF] has a phosphorylation enrichment of 1.13. With LKETGYVVERP [BCLAF1_Y466] the phosphorylation enrichment was 0.553. CTTNHYNYMCN [TP53_Y234_I232N] showed a phosphorylation enrichment of 0.593. CEQELYSQLVF [WAS_Y102_W97C_YF] showed a phosphorylation enrichment of 1.24. Work on SVCPDYDLCSI [SQSTM1_Y148_V153I] yielded a phosphorylation enrichment of 1.11. For PKEEPYQMQEK [SLC5A3_Y565], the phosphorylation enrichment was 1.17. In the case of IGEGTYGVVYK [CDK2_Y15], the phosphorylation enrichment is reported as 0.756. LSCLAYSGKDA [FXN_Y205_S202C] gave a phosphorylation enrichment of 1.24. NACGLYFKLHN [GATA2_Y376_YF] was tested, and the phosphorylation enrichment was 1.21. SQDSAYHSGIQ [FLG_Y3940] showed a phosphorylation enrichment of 0.492. IVKAYYVRARA [AIPL1_Y268] gave a phosphorylation enrichment of 0.743. For FEREQYADRAR [RBM4_Y355_YF], the phosphorylation enrichment was 0.515. GFEEAYSVFKK [PAFAH1B1_Y28_YF] gave a phosphorylation enrichment of 0.514. For DKITQYVEEVK [STX2_Y49], the phosphorylation enrichment was 0.876. ARLEYCENEKK [IRS1_Y47_Y47C] gave a phosphorylation enrichment of 0.687. YETVKYFNNER [ABCB7_Y345] was tested, and the phosphorylation enrichment was 0.683. With QKNVSYVSTVS [TASOR_Y1043] the phosphorylation enrichment was 0.401. HLNLTYRILSF [MMP23B_Y95_F91L] showed a phosphorylation enrichment of 1.51. RSDEDYLYREE [POR_Y573] was tested, and the phosphorylation enrichment was 1.48. Sequence IEDPYYGNDFD [ACP1_Y133_S137F] has a phosphorylation enrichment of 1.43. IVLRSYPASDH [NID2_Y449_G453D] gave a phosphorylation enrichment of 0.743. Sequence SVGVPYEPPEV [TP53_Y220_V217G] has a phosphorylation enrichment of 1.09. In the case of SKNYTYIWWLN [PSG4_Y271], the phosphorylation enrichment is reported as 1.09. KLIMEYLPYGS [JAK2_Y931] was tested, and the phosphorylation enrichment was 0.945.

These sequences were tested on Fer (mouse) in the same assay as above.
QEEPEYWDQET [HLA-A_Y83_G80E] gave a phosphorylation enrichment of 0.902. KILGRYYETSS [PAX2_Y72_G76S] gave a phosphorylation enrichment of 0.447. In the case of HQIQSYTCEID [DES_Y331], the phosphorylation enrichment is reported as 0.349. PLDGEYFTRQI [TP53_Y327_L330R] was tested, and the phosphorylation enrichment was 0.291. In the case of LQLLGYRPVYS [CHST6_Y358], the phosphorylation enrichment is reported as 0.49. With AAVDEYLEFRR [FAM221A_Y17_YF] the phosphorylation enrichment was 0.421. With LTRDIYKNDFF [ROS1_Y2110_A2106T_YF] the phosphorylation enrichment was 0.937. Work on DDDPEDRKFLE [UPF3B_Y160_Y160D] yielded a phosphorylation enrichment of 0.56. Work on GRLVEYDIDEV [SMS_Y134] yielded a phosphorylation enrichment of 0.658. With NPSFNYEIVNQ [DYNC1H1_Y3379_R3384Q_YF] the phosphorylation enrichment was 1.12. For LKETGYVVERP [BCLAF1_Y466], the phosphorylation enrichment was 0.321. In the case of CTTNHYNYMCN [TP53_Y234_I232N], the phosphorylation enrichment is reported as 0.489. CEQELYSQLVF [WAS_Y102_W97C_YF] gave a phosphorylation enrichment of 10.7. Sequence SVCPDYDLCSI [SQSTM1_Y148_V153I] has a phosphorylation enrichment of 2.9. For PKEEPYQMQEK [SLC5A3_Y565], the phosphorylation enrichment was 0.687. Sequence IGEGTYGVVYK [CDK2_Y15] has a phosphorylation enrichment of 1.73. Sequence LSCLAYSGKDA [FXN_Y205_S202C] has a phosphorylation enrichment of 0.525. Sequence NACGLYFKLHN [GATA2_Y376_YF] has a phosphorylation enrichment of 0.425. SQDSAYHSGIQ [FLG_Y3940] was tested, and the phosphorylation enrichment was 0.404. With IVKAYYVRARA [AIPL1_Y268] the phosphorylation enrichment was 0.396. With FEREQYADRAR [RBM4_Y355_YF] the phosphorylation enrichment was 0.394. GFEEAYSVFKK [PAFAH1B1_Y28_YF] was tested, and the phosphorylation enrichment was 0.365. For DKITQYVEEVK [STX2_Y49], the phosphorylation enrichment was 0.479. With ARLEYCENEKK [IRS1_Y47_Y47C] the phosphorylation enrichment was 0.464. Sequence YETVKYFNNER [ABCB7_Y345] has a phosphorylation enrichment of 9.57. QKNVSYVSTVS [TASOR_Y1043] was tested, and the phosphorylation enrichment was 0.403. HLNLTYRILSF [MMP23B_Y95_F91L] showed a phosphorylation enrichment of 0.605. Sequence RSDEDYLYREE [POR_Y573] has a phosphorylation enrichment of 0.559. IEDPYYGNDFD [ACP1_Y133_S137F] showed a phosphorylation enrichment of 0.786. IVLRSYPASDH [NID2_Y449_G453D] gave a phosphorylation enrichment of 0.44. For SVGVPYEPPEV [TP53_Y220_V217G], the phosphorylation enrichment was 0.585. Sequence SKNYTYIWWLN [PSG4_Y271] has a phosphorylation enrichment of 0.638. Work on KLIMEYLPYGS [JAK2_Y931] yielded a phosphorylation enrichment of 0.405.

These sequences were tested against Hck (UniProt P08631) in the same assay as above.
Chain of Hck (P08631 whole entry, looked up): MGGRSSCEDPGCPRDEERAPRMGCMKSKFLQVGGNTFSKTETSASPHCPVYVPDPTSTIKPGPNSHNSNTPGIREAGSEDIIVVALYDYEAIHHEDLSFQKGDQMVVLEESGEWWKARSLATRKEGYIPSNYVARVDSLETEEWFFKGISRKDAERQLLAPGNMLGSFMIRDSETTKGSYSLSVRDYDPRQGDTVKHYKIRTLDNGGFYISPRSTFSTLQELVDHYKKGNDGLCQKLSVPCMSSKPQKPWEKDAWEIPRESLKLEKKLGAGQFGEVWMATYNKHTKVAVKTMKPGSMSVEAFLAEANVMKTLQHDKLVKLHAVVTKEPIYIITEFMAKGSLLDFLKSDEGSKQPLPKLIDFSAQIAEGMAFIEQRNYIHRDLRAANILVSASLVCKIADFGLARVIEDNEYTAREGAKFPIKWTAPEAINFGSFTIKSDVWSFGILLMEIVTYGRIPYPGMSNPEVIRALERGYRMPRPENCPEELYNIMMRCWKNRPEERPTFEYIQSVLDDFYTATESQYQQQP
Work on QEEPEYWDQET [HLA-A_Y83_G80E] yielded a phosphorylation enrichment of 0.699. KILGRYYETSS [PAX2_Y72_G76S] gave a phosphorylation enrichment of 0.344. Work on HQIQSYTCEID [DES_Y331] yielded a phosphorylation enrichment of 0.675. PLDGEYFTRQI [TP53_Y327_L330R] gave a phosphorylation enrichment of 0.686. With LQLLGYRPVYS [CHST6_Y358] the phosphorylation enrichment was 0.581. AAVDEYLEFRR [FAM221A_Y17_YF] gave a phosphorylation enrichment of 1.47. For LTRDIYKNDFF [ROS1_Y2110_A2106T_YF], the phosphorylation enrichment was 0.717. DDDPEDRKFLE [UPF3B_Y160_Y160D] gave a phosphorylation enrichment of 0.594. With GRLVEYDIDEV [SMS_Y134] the phosphorylation enrichment was 0.549. Work on NPSFNYEIVNQ [DYNC1H1_Y3379_R3384Q_YF] yielded a phosphorylation enrichment of 0.602. For LKETGYVVERP [BCLAF1_Y466], the phosphorylation enrichment was 0.399. CTTNHYNYMCN [TP53_Y234_I232N] showed a phosphorylation enrichment of 0.415. CEQELYSQLVF [WAS_Y102_W97C_YF] gave a phosphorylation enrichment of 6.76. Work on SVCPDYDLCSI [SQSTM1_Y148_V153I] yielded a phosphorylation enrichment of 0.599. PKEEPYQMQEK [SLC5A3_Y565] showed a phosphorylation enrichment of 0.566. With IGEGTYGVVYK [CDK2_Y15] the phosphorylation enrichment was 7.9. LSCLAYSGKDA [FXN_Y205_S202C] was tested, and the phosphorylation enrichment was 0.527. With NACGLYFKLHN [GATA2_Y376_YF] the phosphorylation enrichment was 0.491. SQDSAYHSGIQ [FLG_Y3940] gave a phosphorylation enrichment of 0.678. Work on IVKAYYVRARA [AIPL1_Y268] yielded a phosphorylation enrichment of 0.419. Sequence FEREQYADRAR [RBM4_Y355_YF] has a phosphorylation enrichment of 0.426. Work on GFEEAYSVFKK [PAFAH1B1_Y28_YF] yielded a phosphorylation enrichment of 2.51. For DKITQYVEEVK [STX2_Y49], the phosphorylation enrichment was 0.421. Work on ARLEYCENEKK [IRS1_Y47_Y47C] yielded a phosphorylation enrichment of 0.421. Work on YETVKYFNNER [ABCB7_Y345] yielded a phosphorylation enrichment of 1.83. QKNVSYVSTVS [TASOR_Y1043] showed a phosphorylation enrichment of 0.47. For HLNLTYRILSF [MMP23B_Y95_F91L], the phosphorylation enrichment was 0.54. RSDEDYLYREE [POR_Y573] gave a phosphorylation enrichment of 0.827. For IEDPYYGNDFD [ACP1_Y133_S137F], the phosphorylation enrichment was 1.02. IVLRSYPASDH [NID2_Y449_G453D] was tested, and the phosphorylation enrichment was 0.44. Work on SVGVPYEPPEV [TP53_Y220_V217G] yielded a phosphorylation enrichment of 0.577. Work on SKNYTYIWWLN [PSG4_Y271] yielded a phosphorylation enrichment of 0.4. For KLIMEYLPYGS [JAK2_Y931], the phosphorylation enrichment was 0.51.

These sequences were tested on c-Abl (mouse) in the same assay as above.
QEEPEYWDQET [HLA-A_Y83_G80E] gave a phosphorylation enrichment of 0.907. With KILGRYYETSS [PAX2_Y72_G76S] the phosphorylation enrichment was 0.613. With HQIQSYTCEID [DES_Y331] the phosphorylation enrichment was 0.767. With PLDGEYFTRQI [TP53_Y327_L330R] the phosphorylation enrichment was 1.2. LQLLGYRPVYS [CHST6_Y358] was tested, and the phosphorylation enrichment was 0.911. AAVDEYLEFRR [FAM221A_Y17_YF] was tested, and the phosphorylation enrichment was 0.722. For LTRDIYKNDFF [ROS1_Y2110_A2106T_YF], the phosphorylation enrichment was 0.673. Work on DDDPEDRKFLE [UPF3B_Y160_Y160D] yielded a phosphorylation enrichment of 0.867. GRLVEYDIDEV [SMS_Y134] was tested, and the phosphorylation enrichment was 0.902. NPSFNYEIVNQ [DYNC1H1_Y3379_R3384Q_YF] was tested, and the phosphorylation enrichment was 0.586. For LKETGYVVERP [BCLAF1_Y466], the phosphorylation enrichment was 0.469. CTTNHYNYMCN [TP53_Y234_I232N] showed a phosphorylation enrichment of 0.495. Work on CEQELYSQLVF [WAS_Y102_W97C_YF] yielded a phosphorylation enrichment of 0.987. Sequence SVCPDYDLCSI [SQSTM1_Y148_V153I] has a phosphorylation enrichment of 0.876. Sequence PKEEPYQMQEK [SLC5A3_Y565] has a phosphorylation enrichment of 0.943. For IGEGTYGVVYK [CDK2_Y15], the phosphorylation enrichment was 0.63. LSCLAYSGKDA [FXN_Y205_S202C] gave a phosphorylation enrichment of 1.15. With NACGLYFKLHN [GATA2_Y376_YF] the phosphorylation enrichment was 0.784. SQDSAYHSGIQ [FLG_Y3940] was tested, and the phosphorylation enrichment was 0.506. Work on IVKAYYVRARA [AIPL1_Y268] yielded a phosphorylation enrichment of 0.512. Sequence FEREQYADRAR [RBM4_Y355_YF] has a phosphorylation enrichment of 0.464. GFEEAYSVFKK [PAFAH1B1_Y28_YF] gave a phosphorylation enrichment of 0.756. Work on DKITQYVEEVK [STX2_Y49] yielded a phosphorylation enrichment of 0.698. ARLEYCENEKK [IRS1_Y47_Y47C] was tested, and the phosphorylation enrichment was 0.486. With YETVKYFNNER [ABCB7_Y345] the phosphorylation enrichment was 0.64. Sequence QKNVSYVSTVS [TASOR_Y1043] has a phosphorylation enrichment of 0.38. Work on HLNLTYRILSF [MMP23B_Y95_F91L] yielded a phosphorylation enrichment of 1.08. RSDEDYLYREE [POR_Y573] showed a phosphorylation enrichment of 0.813. In the case of IEDPYYGNDFD [ACP1_Y133_S137F], the phosphorylation enrichment is reported as 0.93. In the case of IVLRSYPASDH [NID2_Y449_G453D], the phosphorylation enrichment is reported as 0.583. Sequence SVGVPYEPPEV [TP53_Y220_V217G] has a phosphorylation enrichment of 0.881. SKNYTYIWWLN [PSG4_Y271] showed a phosphorylation enrichment of 0.676. In the case of KLIMEYLPYGS [JAK2_Y931], the phosphorylation enrichment is reported as 0.62.
